Assay results as given in the DeepSol protein solubility set.

Assay: soluble on expression in E. coli; label from the status in PepcDB or PDB records
For “MAHHHHHHSLQTGIPALPPIAQPLPVPAPAPVTPPAPTVPVPQEPAPVPQPPMPQPSVPQTPAPQKPVTPRPAPAPSRAPLLIQARANVPALVAGKKTTVPVLKTLTIPAERAAQLRQRGEVSASLQADLDTFLKSLAAPRDARFEQQDDGQWAVVQPNGLKVDAQATRAAVAKVLRDPRGVSANVVVTGQVAPQRTLDFFASRGITTFLATGFTSYYGSSPERVKNIHVGAQNFKDRLFEGDVFSFNKFIGPVSERNGYVPGLVIAGDQTASGVGGGICQVSTTVFRTLYGAGLGIVQRQNHSYQVFYYDPQGLDATIYQPQLDLKFANTTGGPIWFQTEWDDQEATLTITAFGQARDYQVQVDAPKTLKTVAPPKDRLIPDASLPAGQRKQVDWAAPGATIEVTRRFTRGGKTFKQDTLRSVYRPWPNIFRVGTKKEG”, the “soluble on expression in E. coli” value was “not soluble”. With “MAIHVEHVGVLERAREVSRLEDIITEDNEDIEAEMPKMRDDPAGKEARFLQATDEMSAALTQFMKKKIYEEQLANFLDGEEYVLEDQPIEKTDKVMEALKAATTHDYEVYSFAKKLFPDESDLVVVLRAILRKKQISENVRLNAEALLRKVNQETTKKFINSGINSALKAKLFGQALSLNPKLLRASYRQFLMAEDDAVDTYVEWIGSYGYQNRMLVTKFIKETLFSDINALDASCSSLEFGMFLNKLSQLLSLQSAEALFLKTLMNNPIIKKFISAEDYWIFFLISLIKFPETAEELLNNALVTLPADANYKDKTLLLKAIYSGCTNLPFSLFINNEQLLEIRECCKQAIKVTFAAELFDTQNCNKKQNKKPWKKVMFNV” the “soluble on expression in E. coli” value was “not soluble”. For “MAIQHPDIQPAVNHSVQVAIAGAGPVGLMMANYLGQMGIDVLVVEKLDKLIDYPRAIGIDDEALRTMQSVGLVDDVLPHTTPWHAMRFLTPKGRCFADIQPMTDEFGWPRRNAFIQPQVDAVMLEGVSRFPNVRCLFSRELEAFSQQDDEVTLHLKTAEGQREIVKAQWLVACDGGASFVRRTLNVPFEGKTAPNQWIVVDIANDPLSTPHIYLCCDPVRPYVSAALPHAVRRFEFMVMPGETEEQLREPQNMRKLLSKVLPNPDNVELIRQRVYTHNARLAQRFRIDRVLLAGDAAHIMPVWQGQGYNSGMRDAFNLAWKLALVIQGKARDALLDTYQQERRDHAKAMIDLSVTAGNVLAPPKRWQGTLRDGVSWLLNYLPPVKRYFLEMRFKPMPQYYGGALMREGEAKHSPVGKMFIQPKVTLENGDVTLLDNAIGANFAVIGWGCNPLWGMSDEQIQQWRALGTRFIQVVPEVQIHTAQDNHDGVLRVGDTQGRLRSWFAQHNASLVVMRPDRFVAATAIPQTLGKTLNKLASVMTLTRPDADVSVEKVA”, the “soluble on expression in E. coli” value was “soluble”. In the case of “MAISQFFEKIDRYYQKNLKEYEFSEEYSDISFNTFLYLRKINSLGNPTMSELAKAMEVSKPSASNMVSKMTEKGLVETGASPKDGRVCLLGLTDKGKKVIEIENGADMKFFEKIREILDEEELEVLERIFEKIAAGLEGEKHDR”, the “soluble on expression in E. coli” value is reported as “not soluble”. For “MAKDLLLEIGLEEMPAHVVTPSRIQLEEKVIKFLDEHHLDYETVQSFATPRRLAVKVTAIPEKQADVEEEVKGPAKKIALDAEGNWSKAAQGFVRGQGVTTEDIVFKELNGVEYVYVTKFTKGQSAKEVLTKLNDVITSLTFPVTMHWANYDFEYIRPIHWIVALLDDEVIPFKVLDVTTGQTSRGHRFLGDDVTFQHANEYEAKLKEQFVVVQPNERKQMIVDQANALAAEKNWQLALDEELLEEVTNLVEYPTAFVGSFDEKYLSVPDEVLVTSMKEHQRYFDVRNDQGLLMPHFIAVRNGDNVHLENVIKGNEKVLIARLEDAEFFYNEDKKLTIEACVEKLKNVTFHEKIGSIYEKMQRVALIAQIIGRKVGLSEDELEDLKRASEIYKFDLVTNMVGEFPELQGIMGEKYALLQGEKPAVATAIREHYLPTSSEGELPETAIGAVLALADKLDSVFSFFSVGMIPTGSNDPYALRRQTYGVIRIIEDKGWTFPLVQLQTEVDEAVNQDVEKYGVLLNEGQAEVVEFVKARLRQLLMTKNVRHDIIDAVVSAEQADLSKLFASANILKSRFEDQDFKPSMEALTRVINLAKKGQELLGDTEEGIDPSLFENKAEKELYQAVNDLSEAFATRTIAENYEALVNLRPLIDAYFNETMVMVEDEKVKQNRLKQLMQIAKMALSIASLDLLIVK”, the “soluble on expression in E. coli” value was “not soluble”. With “MAKIGFIGFGSMASLIATKIIETEVATPEEIILYSNSKNEHFNQFYTKYPTAELADNEAEIFTKADHSFVCKLPLAVLPLMKDCAAVLTPDRHVVSIAAGVSTSDIIEITPGLQVSKLIPSLTTAVNVGTTLIAHAETVNQTNTSWLETTFEHFGHVMTIREENMDIASDLTSSSPGIIAAIFEQFVEAALRRSSLSDAEVFQMINFALAGTSKLLVEEDYTFSGLIQRVATKDGTTAEGVELSKAQLPNFFDELLDRTQNKYASSEKEIQAQKRELLSLEHHHHHH” the “soluble on expression in E. coli” value was “soluble”. With “MAKILVLYYSMYGHIETMAHAVAEGAKKVDGAEVIIKRVPETMPPEIFAKAGGKTQNAPVATPQELADYDAIIFGTPTRFGNMSGQMRTFLDQTGGLWASGSLYGKLGSVFSSTGTGGGQEQTITSTWTTLAHHGMVIVPIGYAAQELFDVSQVRGGTPYGATTIAGGDGSRQPSQEELSIARYQGEYVAGLAVKLNG” the “soluble on expression in E. coli” value was “not soluble”. In the case of “MAKKEIEPKTEQAKRLRLIRKSLQLHRDQIATRLGINKAIYDHAERGTTFPNVEFLTALSQQLKVNLNWFITGNGEMFTDMAKAKAAGFKPQAIPAGLMKRLGHLAYTTYRDAKITLPPEDVAELAAGLYGKLQELIYNINDMEEVEATLPLLKLHLKRQVEAEKAH”, the “soluble on expression in E. coli” value is reported as “not soluble”. For “MAKNRFVRDVRLIASTSGDPIDAGQNGELLKSLYYQIAVHCIVLPPLRERKEDILPLAIHFIRQGNERYGLHVEGLGDDVQEAFLAYSWPGNVRELEAVILETMATMEQEQTITLAHLPAPFRAKLAPDETKTDFLFDTEDILPLDKYMEEVEIYYIRKALQHHGFNITKTAKALGLSRQNLQYRIRKYQIDKEWG”, the “soluble on expression in E. coli” value was “not soluble”. For “MAKQIKGIAASDGVAIAKAYLLVEPDLSFDNESVTDTDAEVAKFNGALNKSKVELTKIRNNAEKQLGADKAAIFDAHLLVLEDPELIQPIEDKIKNESVNAAQALTDVSNQFITIFESMDNEYMAERAADIRDVSKRVLAHILGVELPNPSIVDESVVIIGNDLTPSDTAQLNKEYVQGFVTNIGGRTSHSAIMSRSLEIPAVVGTKSITEEVEAGDTIVVDGMTGDVLINPSDEVIAEYQEKRENFFKDKQELQKLRDAESVTADGHHVELAANIGTPNDLPGVIENGAEGIGLYRTEFLYMGRDQMPTEEEQFEAYKAVLEAMKGKRVVVRTLDIGGDKELPYLDLPEEMNPFLGYRAIRLCLDQPEIFRPQLRALLRASVFGKLNIMFPMVATIQEFRDAKALLEEERANLKNEGYEVADDIELGIMVEIPSTAALADIFAKEVDFFSIGTNDLIQYTMAADRMSERVSYLYQPYNPAILRLVKQVIEASHAEGKWTGMCGEMAGDQTAIPLLLGLGLDEFSMSATSILKARRLIRSLNESEMKELSERAVQCATSEEVVDLVEEYTKNA”, the “soluble on expression in E. coli” value was “soluble”. For “MAKRPTETERCIESLIAIFQKHAGRDGNNTKISKTEFLIFMNTELAAFTQNQKDPGVLDRMMKKLDLDSDGQLDFQEFLNLIGGLAIACHDSFIKSTQK”, the “soluble on expression in E. coli” value was “soluble”. In the case of “MAKTIRDESTASAYWAAVNTFCALKDVHVIADAPVGCYNLAGVAVMDYTDAIPYLENLTPTSLTEREISSSGSSQIVQETIEKLMGSGKQLILVSSAESEMIGSDHQHMLAMKYPSVRFFASDSLGENEWQGRDRALAWLFDQFDDGQPSQIEPGTVSIIGPTYGCFNSPADLAEVKRLVTGAGGRVAHVYPFESKAAEITKLKNSAAIVVMYREFGAALAEKLGRPVLYAPFGIEETDRFIGKIGRLCGTPEQATRFIAEEKRTTLSPVWDLWRGPQSEWFPTIRFGVVASKSYADGIKHVLGDELGMQCLFSLDSAEVDNNAVRKEIVQKQPQFLYGRMPDKIYLAEADAKSRFIPAGFPGPIVRRALGTPFMGHSGVVWLVQEIVNALYDTLFNFLPITRRQQAAAPTKPLKWTPEANAILDGIVRKAPFISQISFGRELKRKAENLAASRGADTVTPDILQQLG”, the “soluble on expression in E. coli” value is reported as “soluble”. For “MAKTLGLHILADLYGVDADKIDRVEDIRELLEGAVKYANLTKISSHYYQFQPHGATGVVLLAESHISIHTWPEHGLATVDVYTCGDPSKAYRAMDYIITQLNPKRIDKQVHERGIVEEESNQSEAEKLRSILLQV”, the “soluble on expression in E. coli” value was “soluble”. With “MAKYTEWLTEEGLIKIEGWARDGLIDKQIAQNIGVAYSTFREWVKKFPALSASLKKGKEVVDRQVENALFKSATGYEYTEVTEELTENGMEITKKVKKQVAPNPTAAIFWLKNRKPDEWRDRKETEVSGVLNISDAAVEIEQFFEDDST” the “soluble on expression in E. coli” value was “not soluble”.
